Assay results taken from PMC8096214.
Like-named read-outs stand apart in the source and are kept apart here.

T1: MgR D284A (RNase R, catalytically inactive) (Mycoplasma genitalium, UniProt P47350 1-725, D284A)
T1 sequence: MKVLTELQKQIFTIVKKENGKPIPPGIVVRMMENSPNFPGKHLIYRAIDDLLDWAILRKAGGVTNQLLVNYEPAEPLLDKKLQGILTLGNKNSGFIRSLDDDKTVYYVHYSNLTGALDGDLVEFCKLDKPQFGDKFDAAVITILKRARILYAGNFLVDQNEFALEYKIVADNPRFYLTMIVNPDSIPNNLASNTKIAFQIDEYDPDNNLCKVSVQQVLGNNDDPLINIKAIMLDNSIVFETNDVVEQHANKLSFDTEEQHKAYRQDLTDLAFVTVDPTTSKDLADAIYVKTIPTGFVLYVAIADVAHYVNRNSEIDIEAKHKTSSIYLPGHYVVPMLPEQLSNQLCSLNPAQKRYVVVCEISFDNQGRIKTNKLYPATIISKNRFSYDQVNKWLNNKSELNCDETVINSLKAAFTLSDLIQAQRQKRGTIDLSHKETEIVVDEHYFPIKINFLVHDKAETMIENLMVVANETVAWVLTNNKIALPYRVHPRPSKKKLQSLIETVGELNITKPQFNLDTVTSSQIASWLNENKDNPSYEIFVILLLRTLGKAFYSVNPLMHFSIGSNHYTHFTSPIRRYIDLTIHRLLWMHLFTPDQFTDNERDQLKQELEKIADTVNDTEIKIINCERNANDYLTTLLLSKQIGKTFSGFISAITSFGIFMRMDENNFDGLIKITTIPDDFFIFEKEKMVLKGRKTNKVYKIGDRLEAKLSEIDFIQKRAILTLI


Experiments:
[1] = biological target: T1, MgR D284A (RNase R, catalytically …); test: fluorescence polarization
[2] = biological target: T1, MgR D284A (RNase R, catalytically …); test: crystal structure
[3] = biological target: T1, MgR D284A (RNase R, catalytically …); test: crystal structure; remark: listed apart in the source

| Binder | Kd [1] [nM] | also measured |
| --- | --- | --- |
| CAAACAAAACCGUGUAAAAACAAA (ssRNA) [24-nt ssRNA, unmethylated] | 6.62 ± 0.7 |  |
| AAAA (ssRNA, 2'-O-methyl at A3 ('me' read as suffix)) [4-nt 2'-O-methylated oligo rA (AAAmeA)] |  | binding result [2]: binds |
| 6-bp dsRNA with 7-nt 3' overhang (dsRNA) RNA 1: CCGUGUAAAAAAA RNA 2: ACACGG |  | binding result [3]: binds |
| CAAACAAAACCGUGUAAAAACAAA (ssRNA, 2'-O-methyl at G12, G14, A23 ('me' read as suffix, as in the rA15 30-mer)) [24-nt ssRNA, 2'-O-methylated] | 6.63 ± 0.69 |  |
